Test results from patent US20120045392A1 (CASE WESTERN RESERVE UNIVERSITY, published 2012).

Key:
wild-type Aβ(1-40) = molecular target: T1, wild-type Aβ(1-40); assay: SPR (Table 1)
T1 construct: also called WT Aβ(1-40); Aβ (1-40) monomers

pyro-Glu(3-40/42)-Aβ [1] = molecular target: T2, pyro-Glu(3-40/42)-Aβ (N-terminal pyroglutamate (pyro-Glu at Aβ position 3)); assay: SPR or EU-ELISA (Table 1). Column 5 has no head of its own and is read as under the head 'KD for pyro-Glu (3-40/42)' printed at c4. Restated as (37.3 nM) in the line below. Differs from c4 (4.17E-9); second, unheaded column (c5) beside c4 under 'KD for pyro-Glu (3-40/42)'; probably the other peptide length (3-40 or 3-42), which the patent does not state
T2 construct: also called pyro-Glu(3-40/42) monomers; N-terminally modified pyro-glutamate Aβ
T2 sequence (peptide, as listed by the source): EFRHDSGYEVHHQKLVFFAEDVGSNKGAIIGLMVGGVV

Aβ (1-40) fibrils = molecular target: T3, Aβ (1-40) fibrils; assay: SPR / Europium ELISA
T3 construct: Fibrillar aggregate of wild-type Aβ(1-40)
T3 sequence (peptide, as listed by the source): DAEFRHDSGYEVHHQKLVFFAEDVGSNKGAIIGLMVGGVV

[2] = molecular target: T4, pyro-Glu(3-40/42) fibrils (N-terminal pyroglutamate (pyro-Glu at Aβ position 3)); assay: SPR, fibrils
T4 construct: Fibrillar aggregate of pyro-Glu(3-40/42)-Aβ

pyro-Glu(3-40/42)-Aβ [3] = molecular target: T2, pyro-Glu(3-40/42)-Aβ; assay: SPR; restated as (4.2 nM) in the line below

B1: PGA 5 (antibody, IgG1, V domains shown)
VH: EVKLVESGGGLVQPGGSLRLSCVTSGFTFTENYMSWVRQPPGKALEWLGFIRNKANGYTTEYSASVKGRFTISRDNSQSILYLQMNTLRAEDSATYYCARDWDYGSSHAMDYWGQGTSVTVSS
VL: DILLTQSPAILSVSPGERVSFSCRASQNIGTSMHWFQQRTNGSPRLLIKYASESVSGIPSRFSGSGSGTDFTLSINSVESGDIADYYCQQSNSWPFTFGSGTKLEI
notes: also called 1F2 2E3; PGAS
Question: Which results are given for B1?
Answer: binding result (wild-type Aβ(1-40)): no binding; Kd (pyro-Glu(3-40/42)-Aβ [1]): 37.3 nM; binding result (Aβ (1-40) fibrils): no binding; Kd [2]: 4.53 nM; Kd (pyro-Glu(3-40/42)-Aβ [3]): 4.17 nM
